Experiment [1] concerns the target PSI-HydA complex purified from ΨH1^H6 (Chlamydomonas reinhardtii) (UniProt P12154). The experiment is described as follows: cell-based or functional assay.
In experiment [2] the target is PSI-HydA complex of the ΨH1 strain (hydA1-1 hydA2-1 [psaC-hydA2]) (Chlamydomonas reinhardtii) (UniProt P12154). The experiment in a line: cell-based or functional assay.
For experiment [3], the target named is PSI purified from WT^H6 (Chlamydomonas reinhardtii) (UniProt P12154). The experiment is described as follows: cell-based or functional assay.
Substrate in experiment [4]: PSI purified from the hydA strain (hydA1-1 hydA2-1) (Chlamydomonas reinhardtii) (UniProt P12154)
The experiment in a line: cell-based or functional assay.

The target of experiment [5] is PSI-HydA complex of the ΨH1 strain (hydA1-1 hydA2-1 [psaC-hydA2]) (Chlamydomonas reinhardtii) (UniProt P12154). The experiment in a line: cell-based or functional assay. The source holds these as a separate data set.
For experiment [6], the target named is PSI-HydA complex purified from ΨH1^H6 (Chlamydomonas reinhardtii) (UniProt P12154). The experiment in a line: immunoblot of isolated PSI particles loaded on equal P700.

This is an account of results in patent publication US20220204996A1.

In experiment [1], “ferredoxin (Fd) (from UniProt P07839 33-126)” returned an NADP+ photoreduction rate (coupled assay with Fd and FNR) (NADPH s^-1 per PSI) of 0.77; an ability of PSI-HydA to reduce algal Fd (in a coupled assay) of 50%. The molecule further showed a rate of H2 production in the dark (GC-TCD, ΨH1 culture) (nmol H2 h^-1 (mg Chl)^-1) in experiment [2] of 330. Also, the NADP+ photoreduction rate (coupled assay with Fd and FNR) (NADPH s^-1 per PSI) in experiment [3] was 1.57.

B1: Recombinant Synechococcus sp. PCC7002 flavodoxin (protein, UniProt P31158 2-170, looked up)
chain: SKIGLFFGTQTGNTEELAQAIQAAFGGSDIVELFDVAEVDIEALRDFDQLIIGCPTWNVGELQSDWEALYDDLDDVDFSGKTIAYFGAGDQVGYADNFQDAMGVLEEKITSLGGKTVGQWPTAGYDHSESKAERDGKFVGLAIDEDNQPELTAERIQAWVAQLKPAFGL
B1: the Flavodoxin photoreduction turnover rate in experiment [4] was 0.77 s⁻¹. In experiment [5], this molecule had a Flavodoxin photoreduction turnover rate of 0.088 s⁻¹ and a light-driven reduction of cyanobacterial flavodoxin, drop against PSI of 9 fold.

B2: PsaD (protein, Chlamydomonas reinhardtii, UniProt Q39615 36-196, looked up)
chain: EAEAAPAAAKKAAEKPAWTVPTLNPDTPSPIFGGSTGGLLRKAQTEEFYVITWEAKKEQIFEMPTGGAAIMRQGPNLLKFGKKEQCLALTTQLRNKFKLTPCFYRVFPDGKVQYLHPADGVYPEKVNAGRVGANQNMRRIGQNVNPIKVKFSGRMMSPAEI
In the case of B2, the ratio of anti-PsaD cross-reactive bands (PSI : PSI-HydA) (ratio to WT PSI) in experiment [6] came to 1.02.
